From PMC5850324, “Interactions between the Hepatitis C Virus Nonstructural 2 Protein and Host Adaptor Proteins 1 and 4 Orchestrate Virus Release” (mBio, 2018)

B1: GLuc2-NS2 (hepatitis C virus nonstructural 2 protein, wild type) [hepatitis C virus (J6/JFH genome)] / GLuc1-tagged μ subunit of the AP-1B complex [not stated] (parent)
chain 1: YDASVHGQIGAALLVLITLFTLTPGYKTLLSRFLWWLCYLLTLAEAMVQEWAPPMQVRGGRDGIIWAVAIFCPGVVFDITKWLLAVLGPAYLLKGALTRVPYFVRAHALLRMCTMVRHLAGGRYVQMVLLALGRWTGTYIYDHLTPMSDWAANGLRDLAVAVEPIIFSPMEKKVIVWGAETAACGDILHGLPVSARLGREVLLGPADGYTSKGWSLL
chain 2: MSASAVFILDVKGKPLISRNYKGDVAMSKIEHFMPLLVQREEEGALAPLLSHGQVHFLWIKHSNLYLVATTSKNANASLVYSFLYKTIEVFCEYFKELEEESIRDNFVIVYELLDELMDFGFPQTTDSKILQEYITQQSNKLETGKSRVPPTVTNAVSWRSEGIKYKKNEVFIDVIESVNLLVNANGSVLLSEIVGTIKLKVFLSGMPELRLGLNDRVLFELTGRSKNKSVELEDVKFHQCVRLSRFDNDRTISFIPPDGDFELMSYRLSTQVKPLIWIESVIEKFSHSRVEIMVKAKGQFKKQSVANGVEISVPVPSDADSPRFKTSVGSAKYVPERNVVIWSIKSFPGGKEYLMRAHFGLPSVEKEEVEGRPPIGVKFEIPYFTVSGIQVRYMKIIEKSGYQALPWVRYITQSGDYQLRTS
B2: GLuc2-NS2 (hepatitis C virus nonstructural 2 protein, wild type) [hepatitis C virus (J6/JFH genome)] / GLuc1-tagged μ subunit of the AP-1A complex [not stated] (parent)
chain 1: B1 chain 1
chain 2: MSASAVYVLDLKGKVLICRNYRGDVDMSEVEHFMPILMEKEEEGMLSPILAHGGVRFMWIKHNNLYLVATSKKNACVSLVFSFLYKVVQVFSEYFKELEEESIRDNFVIIYELLDELMDFGYPQTTDSKILQEYITQEGHKLETGAPRPPATVTNAVSWRSEGIKYRKNEVFLDVIESVNLLVSANGNVLRSEIVGSIKMRVFLSGMPELRLGLNDKVLFDNTGRGKSKSVELEDVKFHQCVRLSRFENDRTISFIPPDGEFELMSYRLNTHVKPLIWIESVIEKHSHSRIEYMIKAKSQFKRRSTANNVEIHIPVPNDADSPKFKTTVGSVKWVPENSEIVWSIKSFPGGKEYLMRAHFGLPSVEAEDKEGKPPISVKFEIPYFTTSGIQVRYLKIIEKSGYQALPWVRYITQNGDYQLRTQ

Variants of: B1
Assay: PCA (protein-fragment complementation assay)
Details: with GLuc1-tagged μ subunit of the AP-1B complex; parent: 1; read off a plot

Going from chain 1 D207A to chain 1 E200A, the ratio to parent rises from 0.79 to 0.97.

Going from chain 1 L202A to chain 1 L202A L203A L216A L217A, the ratio to parent falls from 0.8 to 0.47.

Going from chain 1 L202A L217A to chain 1 L203A, the ratio to parent rises from 0.55 to 0.67.

Going from chain 1 L216A to chain 1 L217A, the ratio to parent falls from 0.77 to 0.76.

Variants of: B2
Assay: PCA (protein-fragment complementation assay)
Details: with GLuc1-tagged μ subunit of the AP-1A complex; parent: 1; read off a plot

Compared with chain 1 D207A, chain 1 E200A is higher in ratio to parent: 0.74 for the first, 1 for the second.

Compared with chain 1 L202A, chain 1 L202A L203A L216A L217A is lower in ratio to parent: 0.71 for the first, 0.33 for the second.

Going from chain 1 L202A L217A to chain 1 L203A, the ratio to parent rises from 0.38 to 0.67.

Compared with chain 1 L216A, chain 1 L217A is higher in ratio to parent: 0.56 for the first, 0.68 for the second.
